Data on four proteins can be found in paper doi:10.1101/2021.12.09.472013 (bioRxiv, 2021).

This series concerns the molecule itself. Kind of series: fluorescence fluctuation spectroscopy.

A value given as a limit tells only on which side of the number the result lay.

B1: SS-EGFP-torsinA^50-332 (domain or fragment, UniProt O14656 50-332, looked up)
chain: CGQKRSLSREALQKDLDDNLFGQHLAKKIILNAVFGFINNPKPKKPLTLSLHGWTGTGKNFVSKIIAENIYEGGLNSDYVHLFVATLHFPHASNITLYKDQLQLWIRGNVSACARSIFIFDEMDKMHAGLIDAIKPFLDYYDLVDGVSYQKAMFIFLSNAGAERITDVALDFWRSGKQREDIKLKDIEHALSVSVFNNKNSGFWHSSLIDRNLIDYFVPFLPLEYKHLKMCIRVEMQSRGYEIDEDIVSRVAEEMTFFPKEERVFSDKGCKTVFTKLDYYYDD
On to B1, for which the normalized brightness b was roughly 8.

B2: SS-torsinA^WT-EGFP (natural protein, UniProt O14656 21-332, looked up)
chain: VEPISLGLALAGVLTGYIYPRLYCLFAECCGQKRSLSREALQKDLDDNLFGQHLAKKIILNAVFGFINNPKPKKPLTLSLHGWTGTGKNFVSKIIAENIYEGGLNSDYVHLFVATLHFPHASNITLYKDQLQLWIRGNVSACARSIFIFDEMDKMHAGLIDAIKPFLDYYDLVDGVSYQKAMFIFLSNAGAERITDVALDFWRSGKQREDIKLKDIEHALSVSVFNNKNSGFWHSSLIDRNLIDYFVPFLPLEYKHLKMCIRVEMQSRGYEIDEDIVSRVAEEMTFFPKEERVFSDKGCKTVFTKLDYYYDD
For the protein B2, the normalized brightness b was greater than 3.

B3: SS-EGFP-torsinA^WT (natural protein, UniProt O14656 21-332, looked up)
chain: VEPISLGLALAGVLTGYIYPRLYCLFAECCGQKRSLSREALQKDLDDNLFGQHLAKKIILNAVFGFINNPKPKKPLTLSLHGWTGTGKNFVSKIIAENIYEGGLNSDYVHLFVATLHFPHASNITLYKDQLQLWIRGNVSACARSIFIFDEMDKMHAGLIDAIKPFLDYYDLVDGVSYQKAMFIFLSNAGAERITDVALDFWRSGKQREDIKLKDIEHALSVSVFNNKNSGFWHSSLIDRNLIDYFVPFLPLEYKHLKMCIRVEMQSRGYEIDEDIVSRVAEEMTFFPKEERVFSDKGCKTVFTKLDYYYDD
In the case of B3, the “stoichiometry N” value was no less than 3.

B4: SS-EGFP-torsinA^ΔNTD (natural protein, UniProt O14656 21-332, looked up)
chain: VEPISCLFAECCGQKRSLSREALQKDLDDNLFGQHLAKKIILNAVFGFINNPKPKKPLTLSLHGWTGTGKNFVSKIIAENIYEGGLNSDYVHLFVATLHFPHASNITLYKDQLQLWIRGNVSACARSIFIFDEMDKMHAGLIDAIKPFLDYYDLVDGVSYQKAMFIFLSNAGAERITDVALDFWRSGKQREDIKLKDIEHALSVSVFNNKNSGFWHSSLIDRNLIDYFVPFLPLEYKHLKMCIRVEMQSRGYEIDEDIVSRVAEEMTFFPKEERVFSDKGCKTVFTKLDYYYDD
Consider B4, for which the normalized brightness b was roughly 13.

One may read the stoichiometry N as a count of units in the complex or per binding partner.
